Laboratory results reported in patent publication US20240109974A1 (SHANDONG SIMCERE BIOPHARMACEUTICAL, published 2024).

T1: human TNFR2 on the surface of CHO-TNFR2 cells (human, UniProt P20333 23-461)
T1 construct: whole, on cells
T1 sequence (looked up): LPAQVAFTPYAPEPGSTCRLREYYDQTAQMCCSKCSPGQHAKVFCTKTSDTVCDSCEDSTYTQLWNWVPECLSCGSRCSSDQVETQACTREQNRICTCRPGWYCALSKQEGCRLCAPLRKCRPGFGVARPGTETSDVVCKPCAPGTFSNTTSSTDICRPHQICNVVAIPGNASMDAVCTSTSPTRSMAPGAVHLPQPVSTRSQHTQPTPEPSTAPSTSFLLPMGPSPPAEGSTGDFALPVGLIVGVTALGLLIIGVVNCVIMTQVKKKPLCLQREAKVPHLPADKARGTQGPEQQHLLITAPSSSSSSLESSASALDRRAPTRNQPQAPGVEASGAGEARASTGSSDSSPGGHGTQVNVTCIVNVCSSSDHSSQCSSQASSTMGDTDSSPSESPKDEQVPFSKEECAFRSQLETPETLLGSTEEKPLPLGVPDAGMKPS

T2: Human TNFR2-His (Sino 10417-H08H) (human, UniProt P20333 23-257)
T2 construct: Bought protein; also called recombinant human TNFR2 protein; not shown: His tag
T2 sequence (looked up): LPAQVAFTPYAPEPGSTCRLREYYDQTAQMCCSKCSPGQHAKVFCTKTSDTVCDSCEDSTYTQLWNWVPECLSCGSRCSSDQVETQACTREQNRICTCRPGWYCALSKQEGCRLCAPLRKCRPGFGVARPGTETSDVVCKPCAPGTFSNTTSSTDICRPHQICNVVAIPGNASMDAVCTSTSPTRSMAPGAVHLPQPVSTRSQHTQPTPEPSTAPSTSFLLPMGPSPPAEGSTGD


How the values were obtained:
[1] = target: T1, human TNFR2 on the surface of CHO-TNFR2 …; experiment: flow cytometry on CHO-TNFR2 cells; AUC, reference itself
Procedure: The transfected full-length plasmid of human TNFR2 was purchased from Sino Biological (Cat #HG10417-UT, NCBI Ref Seq: NM_001066.2). The experiment was conducted at a cell density within 80%. The cell medium was discarded; the cells were rinsed with PBS, and digested with 1 ml trypsin for 2 minutes; the digestion was stopped with a Ham's F12 complete medium containing 10% FBS, and then a cell suspension was made. The cell suspension was counted, and then an appropriate amount of cell suspension was centrifuged at 350×g; the supernatant was discarded; a corresponding volume of blocking solution (10% FBS+PBS) at a density of 1×10⁷ cells/ml was added to resuspend the cells, and the mixture was incubated at 4° C. for 30 minutes. After the incubation, the mixture was centrifuged at 350×g to remove the supernatant, and the cells were resuspended in a staining buffer (2% FBS+PBS) to a density of 2×10⁶ cells/ml, and spread onto a 96-well plate, with 50 μl of cell suspension added to each well for later use. The antibody was diluted with PBS for 10-fold gradient dilution from the highest concentration of 20 μg/m (twice the concentration); the diluted antibody was added to the well containing 50 μl of cell suspension, and placed on a microplate shaker for shaking at 500 rpm for 1 minute, so that the antibody was fully mixed with the cells; the mixture was incubated at 4° C. for 1 h. After the incubation, the cells were washed twice with the staining buffer, with 100 μl per well, and centrifuged at 350-g for 5 minutes, and the supernatant was discarded. […] After the staining, similarly, the cells were washed twice with the staining buffer; finally, the cells were resuspended in 200 μl of staining buffer; signals were detected by a flow cytometer (Thermo Attune NxT). […] The binding curve of an antibody was drawn with antibody concentration as the abscissa and corresponding mean fluorescence intensity (MFI) fold as the ordinate, and fitted with four parameters (GraphPad Prism9) to calculate the EC50 value.

[2] = target: T2, Human TNFR2-His (Sino 10417-H08H); experiment: ELISA, human TNFR2-His coated; EC50 against 001-WT
Procedure: The test humanized antibody against TNFR2 (as described in Example 1, the antibody was comprised of variable regions linked to IgG-Fc; the WT chimeric antibody also adopted the IgG-Fc structure) was subjected to 3.33-fold gradient dilution, loaded with 100 μl/well, and incubated with shaking at room temperature for 1.5 hours. The plate was washed, and then a working solution of murine anti-human IgG Fc-HRP (diluted at 1:10000) was added, loaded with 100 μl/well, and incubated with shaking at room temperature for 1.0 hour. The plate was washed again, and then the substrate TMB of HRP was added to develop colour. A stop solution was added to stop the reaction, and then a microplate reader (MD 13) was used to read the absorbance value. The binding curve of an antibody was drawn with antibody concentration as the abscissa and corresponding OD value as the ordinate, and fitted with four parameters (GraphPad Prism9) to calculate the EC50 value. The smaller the EC50 value, the stronger the binding ability of an antibody to human/cynomolgus monkey TNFR2. The binding effect of a humanized antibody was normalized to its corresponding human-murine chimeric antibody WT (see SEQ ID NOs: 38-43 for the sequence). The higher the percentage value, the better the binding effect of the humanized antibody. The results of binding of an anti-TNFR2 antibody to a human TNFR2 protein are shown in FIG. 1 and Table 4, and the results of binding of an anti-TNFR2 antibody to cynomolgus monkey TNFR2 are shown in FIG. 2 and Table 4.

[3] = target: T1, human TNFR2 on the surface of CHO-TNFR2 …; experiment: flow cytometry on CHO-TNFR2 cells; EC50 against 001-WT
Procedure: The transfected full-length plasmid of human TNFR2 was purchased from Sino Biological (Cat #HG10417-UT, NCBI Ref Seq: NM_001066.2). The experiment was conducted at a cell density within 80%. The cell medium was discarded; the cells were rinsed with PBS, and digested with 1 ml trypsin for 2 minutes; the digestion was stopped with a Ham's F12 complete medium containing 10% FBS, and then a cell suspension was made. The cell suspension was counted, and then an appropriate amount of cell suspension was centrifuged at 350×g; the supernatant was discarded; a corresponding volume of blocking solution (10% FBS+PBS) at a density of 1×10⁷ cells/ml was added to resuspend the cells, and the mixture was incubated at 4° C. for 30 minutes. After the incubation, the mixture was centrifuged at 350×g to remove the supernatant, and the cells were resuspended in a staining buffer (2% FBS+PBS) to a density of 2×10⁶ cells/ml, and spread onto a 96-well plate, with 50 μl of cell suspension added to each well for later use. The antibody was diluted with PBS for 10-fold gradient dilution from the highest concentration of 20 μg/m (twice the concentration); the diluted antibody was added to the well containing 50 μl of cell suspension, and placed on a microplate shaker for shaking at 500 rpm for 1 minute, so that the antibody was fully mixed with the cells; the mixture was incubated at 4° C. for 1 h. After the incubation, the cells were washed twice with the staining buffer, with 100 μl per well, and centrifuged at 350-g for 5 minutes, and the supernatant was discarded. The PE goat anti-Human IgG Fc antibody (ebioscience, Cat #12-4998-82) was diluted 250-fold with the staining buffer, with a volume of 100 μl per well added to the washed cell wells; the mixture was mixed evenly, and stained at 4° C. for 30 minutes. After the staining, similarly, the cells were washed twice with the staining buffer; finally, the cells were resuspended in 200 μl of staining buffer; signals were detected by a flow cytometer (Thermo Attune NxT). The stronger the signal, the stronger the binding ability of an antibody to TNFR2. The binding curve of an antibody was drawn with antibody concentration as the abscissa and corresponding mean fluorescence intensity (MFI) fold as the ordinate, and fitted with four parameters (GraphPad Prism9) to calculate the EC50 value.

Row | Binder | % Relative activity (Test antibody/WT antibody) [1] [%] | % Relative activity (WT antibody/test antibody) [2] [%] | % Relative activity (WT antibody/test antibody) [3] [%]
1 | 001-Hu5 (antibody, V domains shown, Humanized form of #001; also called VH1 + VL4) VH: EVQLVESGGGLVQPGGSLRLSCAASGFAFSTYDLSWVRQAPGKGLEWVAYINNGGISTYYSDTVKGRFTISRDNAKNTLYLQMNSLRAEDTAVYYCVRGPFYGSANYFDYWGQGTLVTVSS VL: DIQMTQSPSSLSASVGDRVTITCRTSESIYSNLPWYQQKPGKSPKLLVYDATKLAEGVPSRFSGSGSGTDYTLTISSLQPEDFATYYCQHFWVTPWTFGQGTKVEIK | – | 100 | 123
2 | 001-Hu1 (antibody, V domains shown, Humanized form of #001; also called VH1 + VL1) VH: EVQLVESGGGLVQPGGSLRLSCAASGFAFSTYDLSWVRQAPGKGLEWVAYINNGGISTYYSDTVKGRFTISRDNAKNTLYLQMNSLRAEDTAVYYCVRGPFYGSANYFDYWGQGTLVTVSS VL: DIQMTQSPSSLSASVGDRVTITCRTSESIYSNLPWYQQKPGKAPKLLLYDATKLAEGVPSRFSGSGSGTDYTLTISSLQPEDFATYYCQHFWVTPWTFGQGTKVEIK | – | 104 | 78
3 | 001-Hu3 (antibody, V domains shown, Humanized form of #001; also called VH1 + VL3) VH: EVQLVESGGGLVQPGGSLRLSCAASGFAFSTYDLSWVRQAPGKGLEWVAYINNGGISTYYSDTVKGRFTISRDNAKNTLYLQMNSLRAEDTAVYYCVRGPFYGSANYFDYWGQGTLVTVSS VL: DIQMTQSPSSLSASVGDRVTITCRTSESIYSNLPWYQQKPGKAPKLLIYDATKLAEGVPSRFSGSGSGTDYTLTISSLQPEDFATYYCQHFWVTPWTFGQGTKVEIK | – | 101 | 101
4 | 219-WT (antibody, V domains shown, Human-murine chimeric wild-type molecule) VH: EVQLQESGAELVRPGASVKLSCKASGYSFTNYWMNWVKQRPGQGLEWIGMIHPSDTETRLNQNFKDKATLTVDKSSSTSYMQLSSPTSEDSAVYYCARGEGLGAARSVSMDYWGQGTTVTVSS VL: DILMTQSPSSLSASLGDRVTISCRASQDISNYLNWYQQKPDGTVKVLIYYTAILHSGVPSRFSGSGSGTDYSLTISNLEQEDIATYFCQQGNTLPWTFGGGTKLEIK | 100 | – | –

Second part, the binder after the results:

Row | % Relative activity (Test antibody/WT antibody) [1] [%] | % Relative activity (WT antibody/test antibody) [2] [%] | % Relative activity (WT antibody/test antibody) [3] [%] | Binder
5 | 100 | – | – | 001-WT (antibody, V domains shown, Human-murine chimeric wild-type molecule; also called human-murine chimeric antibody WT of #001) VH: EVQLQESGGGLVQPGGSLNLSCAASGFAFSTYDLSWVRQTPEKRLEWVAYINNGGISTYYSDTVKGRFTISRDNAKNTLYLQMSSLKSEDTAMYYCVRGPFYGSANYFDYWGQGTTVTVSS VL: EIVMTQSPASLSLSVGETVTITCRTSESIYSNLPWYQQKQGKSPQLLVYDATKLAEGVPSRFSGSESGTQYSLKINSLQSEDFGTYYCQHFWVTPWTFGGGTKLEIK
6 | – | 102 | 48 | 001-Hu2 (antibody, V domains shown, Humanized form of #001; also called VH2 + VL2) VH: EVQLVESGGGLVQPGGSLRLSCAASGFAFSTYDLSWVRQAPGKGLEWVAYINNGGISTYYSDTVKGRFTISRDNAKNSLYLQMNSLRAEDTAVYYCVRGPFYGSANYFDYWGQGTLVTVSS VL: DIQMTQSPSSLSASVGDRVTITCRTSESIYSNLPWYQQKPGKSPKLLIYDATKLAEGVPSRFSGSGSGTDFTLTISSLQPEDFATYYCQHFWVTPWTFGQGTKVEIK
7 | – | 109 | 129 | 001-Hu4 (antibody, V domains shown, Humanized form of #001; also called VH2 + VL4) VH: EVQLVESGGGLVQPGGSLRLSCAASGFAFSTYDLSWVRQAPGKGLEWVAYINNGGISTYYSDTVKGRFTISRDNAKNSLYLQMNSLRAEDTAVYYCVRGPFYGSANYFDYWGQGTLVTVSS VL: DIQMTQSPSSLSASVGDRVTITCRTSESIYSNLPWYQQKPGKSPKLLVYDATKLAEGVPSRFSGSGSGTDYTLTISSLQPEDFATYYCQHFWVTPWTFGQGTKVEIK
8 | 100 | – | – | 224-WT (antibody, V domains shown, Human-murine chimeric wild-type molecule; also called human-murine chimeric antibody WT of #224) VH: EVQLQESGPEIVKPGASVKLSCTASGFNNKDIYMHWVKQRPEQGLEWIGRIDPATGNTKHDPKFQDKATLSSDTSSNTAYLQFSSLTSEDTAVYYCAHSPYGDFGAMDYWGQGTTVTVSS VL: DIQMTQSPAIMSASLGERVTMTCTASSSVSSNYLHWYQQKPGSSPKLWIYSTSNLPSGVPARFSGSGSGTSYSLTISSMEAEDAATYYCHQYHRSPWTFGGGTKLEIK
